In patent publication EP3541419B1:

Target: human dipeptidyl peptidase 4 (DPP4) expressed by cells (human) (UniProt P27487)
Experiment: cell-based or functional assay

UniProt P27487, sequence (P27487 whole entry): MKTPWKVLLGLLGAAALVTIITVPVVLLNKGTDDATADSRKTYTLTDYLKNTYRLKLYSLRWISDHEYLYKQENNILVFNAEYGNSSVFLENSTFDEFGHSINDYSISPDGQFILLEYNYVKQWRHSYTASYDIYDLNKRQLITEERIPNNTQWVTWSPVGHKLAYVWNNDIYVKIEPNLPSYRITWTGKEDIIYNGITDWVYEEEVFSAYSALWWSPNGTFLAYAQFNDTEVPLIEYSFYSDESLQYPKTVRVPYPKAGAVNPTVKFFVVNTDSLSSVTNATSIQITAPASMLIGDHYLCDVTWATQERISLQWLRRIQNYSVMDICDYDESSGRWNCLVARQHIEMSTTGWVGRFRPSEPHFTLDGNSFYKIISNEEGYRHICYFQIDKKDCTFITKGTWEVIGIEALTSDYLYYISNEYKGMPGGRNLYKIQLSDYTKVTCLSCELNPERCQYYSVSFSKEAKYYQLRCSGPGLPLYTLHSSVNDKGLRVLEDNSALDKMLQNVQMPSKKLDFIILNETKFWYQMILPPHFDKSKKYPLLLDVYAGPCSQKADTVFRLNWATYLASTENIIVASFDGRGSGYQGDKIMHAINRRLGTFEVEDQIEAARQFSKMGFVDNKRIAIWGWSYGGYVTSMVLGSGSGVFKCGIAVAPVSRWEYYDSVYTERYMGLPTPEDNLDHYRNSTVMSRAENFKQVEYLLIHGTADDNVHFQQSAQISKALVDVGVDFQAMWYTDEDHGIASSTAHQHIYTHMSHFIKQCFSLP

S377-588-Fc (residues 377-588 of MERS-CoV S protein fused to Fc of human IgG) (Fc fusion)
inhibition of CPE formation caused by MERS-CoV infection in Calu-3 cells: 3 µg/mL
